Assay results: article PMC11045668 (Nature chemical biology, 2023)

Target: the molecule itself
Test: SEC

B1: soluble transhydrogenase from E. coli (EcSTH), recombinant, with N-terminal Hisx6-tag and C-terminal FLAG-tag (enzyme, Escherichia coli, UniProt P27306 1-466, looked up)
chain: MPHSYDYDAIVIGSGPGGEGAAMGLVKQGARVAVIERYQNVGGGCTHWGTIPSKALRHAVSRIIEFNQNPLYSDHSRLLRSSFADILNHADNVINQQTRMRQGFYERNHCEILQGNARFVDEHTLALDCPDGSVETLTAEKFVIACGSRPYHPTDVDFTHPRIYDSDSILSMHHEPRHVLIYGAGVIGCEYASIFRGMDVKVDLINTRDRLLAFLDQEMSDSLSYHFWNSGVVIRHNEEYEKIEGCDDGVIMHLKSGKKLKADCLLYANGRTGNTDSLALQNIGLETDSRGQLKVNSMYQTAQPHVYAVGDVIGYPSLASAAYDQGRIAAQALVKGEATAHLIEDIPTGIYTIPEISSVGKTEQQLTAMKVPYEVGRAQFKHLARAQIVGMNVGTLKILFHRETKEILGIHCFGERAAEIIHIGQAIMEQKGGGNTIEYFVNTTFNYPTMAEAYRVAALNGLNRLF
Q: Which “stoichiometry N” value does the source give for B1 here?
A: The value was 12.
